Measurements reported in the supplement of paper PMC9170038.

System: K4 kissing-loop RNA reporter
Test: apparent KD of K4 kissing-loop reporter; higher = weaker reporter binding
Details: Eterna round: R107
Protocol: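 RNA-MaP round R107: designed RNA switches with theophylline, tryptophan, arginine or FMN aptamers are transcribed on-chip within common flanks. They are titrated with a labelled K4 kissing-loop RNA reporter in RNA-MaP buffer (100 mM Tris pH 7.5, 80 mM KCl, 4 mM MgCl2), without ligand or with the indicated ligand. Median apparent KD per design.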

[1] = input ligand: theophylline 20 uM
[2] = input ligand: tryptophan 2.4 mM
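Note: bound reporter read as fluorescence of individual clusters on recovered sequencing chips by microscopy, with normalized cluster intensities fitted with a binding model.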

| Sequence | apparent KD of K4 kissing-loop reporter (input ligand: FMN 200 uM) | apparent KD of K4 kissing-loop reporter (input ligand: arginine 13.2 mM) | apparent KD of K4 kissing-loop reporter (input ligand: none) | apparent KD of K4 kissing-loop reporter [1] | apparent KD of K4 kissing-loop reporter [2] |
| --- | --- | --- | --- | --- | --- |
| UAGAGAUCGAGAAGGAGCGAGAAAGCUAGUACAUAUGUACUAGCAAAGCAGUGAUGUUGCACUCAGGUAGGUCGCUCGAUCUCAU [AK1.1 SS Arginine B] | 337 nM | 267 nM | 366 nM | 432 nM | 305 nM |
| UAGAGCAUCGCAGGAUAUCCUGCUUAACGUUGGAUUCCAGUGAUGUUGGAAAGCCGGCCUAGGGUAGGAGAAGGGCGGAUUUGAA [Edvean] | 171 nM | 151 nM | 215 nM | 322 nM | 149 nM |
| UAGUAGCUCUCGGCCGCCACUCCUCAGUGAUGUUGAGAUAUUAAGAGCCAAUUGGCUCAUAUAAAGAGGACCGGGAGAGCUACAU [AK4.2 SS Tryptophan B] | 355 nM | 339 nM | 365 nM | 350 nM | 126 nM |
| UAGUAGUAGCGAGGAUAUGCAAUAGGCGAGUGAUGUUCGCCAGGCGGGCGUCGCAUAUAAGAAAGAGCAGAAGGCGCUAGGUAGA [SameState - FMN B / A] | 814 nM | 303 nM | 329 nM | 397 nM | 399 nM |
| UAGUCGCUAGUUAGCGACAACGGGUCAGAUACCAGACUAGCGAUAGUCCCUUGGCAGCUGAAGUUCAGUGAUGUUGAACGGAUUA [Theo A SS t10] | 192 nM | 296 nM | 265 nM | 230 nM | 207 nM |
| UAGUCUCGAGUCUGAGAUUACGGGUCAGAUACCAGACUAGAGAUAGUCCCUUGGCAGCUGAAGUUCAGUGAUGUUGAACGGAUUA [Theo B SS t10a] | 501 nM | 394 nM | 441 nM | 510 nM | 377 nM |
| UAUCGAGUGAUGUUCGAUGUAGUCCAUUCAGAGGAUAUAGGAUUGACUAGAAGGCUGAAACCUUCUUCGAGUGAUGUUCGAGGAU [Same State FMN A GF4] | 92.5 nM | 39.6 nM | 58.9 nM | 45.2 nM | 47.4 nM |
| UAUCGAGUGAUGUUCGAUGUAGUUCAUUCAGAGGAUAUAGGAUGGGCUAGAAGGCUGAAAAGUGCUUCGAGUGAUGUUCGAAGAU [Exclusion FMN A GF 6] | 64.6 nM | 40.9 nM | 53.7 nM | 40.9 nM | 44.7 nM |
| UAUGAAUGUGGAGGAUAUUGAUUGAAUCUUGGUCUGGAGUGAUGUUCCGGGAAGCCUUGGAUUCAUCGAGAAGGCCAUGGAUAGU [#03 K4 FMN B Same State] | 111 nM | 111 nM | 118 nM | 109 nM | 95.9 nM |
| UAUUGUACAGGGAAAUUGAUAAUAGACUUACGAGGACCGGUACGGCCGCCACUCGAUAGUCGAGUGAUGUUCGAAUGCUAUUGAU [Attempt 1] | 218 nM | 210 nM | 211 nM | 314 nM | 132 nM |
| UCCUGCAAUCGGCCACGAAAGUGGAUUGAUACCAGAGUCGAAAGACUCCCUUGGCAGCGAGUGAUGUUCGAAGCAGGUAAAUAAA | 464 nM | 380 nM | 502 nM | 514 nM | 432 nM |
| UCCUGCAAUCUGCCACGAAAGUGGGUUGAUACCAGAGUCGAAAGACUCCCUUGGCAGCGAGUGAUGUUCGUUGCAGGUGUAUAAA [MatMod 10 - Jieux - Exclusion - Theophylline A] | 195 nM | 184 nM | 194 nM | 209 nM | 179 nM |
| UCGGACCCUGGAGGAUAUGAGUCUAGUGAUGUUAGGCGGUCCAUGCGCGUGGCGCGUUAUGCCCUUUUAGAAGGCCAGGGUCCGA [#2 Exclusion - FMN B Attempt #15 (HarryS)] | 113 nM | 72.4 nM | 104 nM | 90.7 nM | 84.6 nM |
| UCUCAAGCACAGUGAUGUUGUGCUUGGGAAGGAGCGCGUGGGAACGCAGGUAGGUCGCCCGGUAAAUCGCGUCAAUGCUAGAGGC [Arg A Ex t5] | 118 nM | 110 nM | 99.9 nM | 100 nM | 116 nM |
| UCUGGUAUAUCUGAUACCAGAGAAUAGAAUCAAUUGAAUAUGGAGUGAUGUUCCAUAAAACUCCCUUGGCAGCAGAUAAUCAUAU [Same State Theophylline B GF 22] | 113 nM | 167 nM | 125 nM | 172 nM | 112 nM |
| UGACAUUGCUCAGAUACCAGACAAGAGGAUCACCCUUGUGCCAACGUACAAAUAAUAAAUGUCCCUUGGCAGCUGAGCAAUGUCU [TheoBX 15] | 64.1 nM | 31.9 nM | 58.2 nM | 92.8 nM | 47.5 nM |
| UGACAUUGCUCAGAUACCAGACCUGAGGAUCACCCGGGUGCCAAACGUACAAUAAUAAAGGUCCCUUGGCAGCUGAGCAAUGUCU [TheoBX 14] | 56.2 nM | 39.7 nM | 103 nM | 68.4 nM | 83.9 nM |
| UGACUGGACUGAAGGAGCGCGAAACUCCUAGUGAUGUUAGGACAACGAGACAAAGUCUCGACGCAGGUAGGUCGCAGUCUAGUCU | 148 nM | 111 nM | 131 nM | 144 nM | 132 nM |
| UGACUGGACUGAAGGAGCGCUAAAACUCCUAGUGAUGUUAGGAAAACGAGACAAAGUCUCGAGCAGGUAGGUCGCAGUCUAGUCU [ArgBS 21 #SwitchBubble #StaticStem] | 142 nM | 119 nM | 131 nM | 148 nM | 128 nM |
| UGACUGGACUGAAGGAGCGUUGAAGGAGCGUAGUGAGUGAUGUUCACUACAGGUAGGUCGCAGCAGGUAGGUCGCAGUCUAGUCU [ArgBS 25 #DoubleAptamer #SwitchBubble] | 149 nM | 107 nM | 101 nM | 83 nM | 145 nM |
| UGAGUGAUGUUCAAGGACUAGAUCUAAAUAAAGGAUAUAGCAUACGCUAGAAGGUUAAAAUUUCUGGAUCCCAGUUUAAACCUUU [theeternabot_sameState_KL_FMN_A_49] | 246 nM | 154 nM | 222 nM | 222 nM | 195 nM |

| Sequence | apparent KD of K4 kissing-loop reporter (input ligand: FMN 200 uM) | apparent KD of K4 kissing-loop reporter (input ligand: arginine 13.2 mM) | apparent KD of K4 kissing-loop reporter (input ligand: none) | apparent KD of K4 kissing-loop reporter [1] | apparent KD of K4 kissing-loop reporter [2] |
| --- | --- | --- | --- | --- | --- |
| UGAUACCAGACGGCCGCCACUCCCGCAGGUCAAAGACCUGCGAAGAUGGUUCUUCAGUGAUGUUGGAGGACCGGGUCUGGUAUCU [FiskerMod 23 - Jieux - Exclusion - Tryptophan B] | 173 nM | 128 nM | 137 nM | 140 nM | 314 nM |
| UGAUACCAGACGGCCGCCACUCCCGUAAGUCAAAGACUUACGAAGAGAGUUUUUCAGUGAUGUUGGAGGACCGGGUCUGGUAUCU [FiskerMod 16 - Jieux - Exclusion - Tryptophan B] | 838 nM | 618 nM | 870 nM | 850 nM | 721 nM |
| UGAUACCAGACGGCCGCCACUGGGACCGGGAGUGAUGUUCCAAAUAAAAGAAACUCGGCCGCCACUAGGACCGGGUCUGGUAUCU [TrypBX 30 #DoubleAptamer #SwitchBubble] | 622 nM | 278 nM | 379 nM | 479 nM | 110 nM |
| UGAUACCAGACGGCCGCCACUUCCGUAAGUCAAAGACUUGCCAAGGGAAUCGUCCAGUGAUGUUGGAGGACCGGGUCUGGUAUCU [FiskerMod 5 - Jieux - Exclusion - Tryptophan B] | 677 nM | 491 nM | 725 nM | 511 nM | 550 nM |
| UGAUACCAGACGGCCGCCACUUCUGCAAGUCAAAGACUUGCCAAGGGAAUCGUCCAGUGAUGUUGGAGGACCGGGUCUGGUAUCU [FiskerMod 3 - Jieux - Exclusion - Tryptophan B] | 880 nM | 445 nM | 817 nM | 585 nM | 668 nM |
| UGAUACCAGACUGAUACCAGCAAGUGAUGUUUGCUGAUCUAAAGCAGUCAAAGACUGCCUUGCCCUUGGCAGCAGUCUGGUAUCU [TheoBX 25 #SwitchBubble #StaticStem] | 92.3 nM | 81.7 nM | 96.6 nM | 156 nM | 81.1 nM |
| UGAUACCAGACUGAUACCAGCUAGUGAUGUUAGCUAAAAUCAGGGUCAAAGACCCUGUCUGGCCCUUGGCAGCAGUCUGGUAUCU [TheoBX 10 #SwitchBubble #StaticStem] | 137 nM | 120 nM | 134 nM | 191 nM | 120 nM |
| UGAUACCAGGCGGCCGCCACUCCCGCAGGUCAAAGACCUGCGAAGCUGGUUCUUCAGUGAUGUUGGAGGACCGGGCCUGGUAUCU [FiskerMod 25 - Jieux - Exclusion - Tryptophan B] | 253 nM | 211 nM | 236 nM | 232 nM | 494 nM |
| UGAUAGGACAGAAGGAGCGAGGAGUGAUGUUCCUCAAAAGGUCUAGCAAAGCUAGACCCUCCUCAGGUAGGUCGCUGUCCUAUCU [ArgBX 1 #Palindromic #SwitchBubble #StaticStem] | 174 nM | 162 nM | 167 nM | 232 nM | 158 nM |
| UGAUAGGACAGAAGGAGCGGAAGCUAGUCAAAGACUAGCAAACGUUAAACAGGAGUGAUGUUCCAGGUAGGUCGCUGUCCUAUCU [ArgBX 23 #SwitchBubble #StaticStem] | 124 nM | 115 nM | 126 nM | 133 nM | 119 nM |
| UGAUAGGACAGAAGGAGCGGAAGCUAGUCAAAGACUAGCACGUUAAUAACAGGAGUGAUGUUCCAGGUAGGUCGCUGUCCUAUCU [ArgBX 24 #SwitchBubble #StaticStem] | 126 nM | 118 nM | 136 nM | 118 nM | 113 nM |
| UGAUAGGACAGAAGGAGCGGAAGUGAUGUUUCCAAAAGGUAAGGUCGACAAAGUCGACCCUUCCAGGUAGGUCGCUGUCCUAUCU [ArgBX 11 #Palindromic #SwitchBubble #StaticStem] | 88.5 nM | 102 nM | 92.8 nM | 89.2 nM | 82.4 nM |
| UGAUAGGACAGAAGGAGCGGCAGUGAUGUUGCCAAAAGGGUAAGGUGUCAAAAGACACCCUGCCAGGUAGGUCGCUGUCCUAUCU | 166 nM | 173 nM | 162 nM | 163 nM | 134 nM |
| UGAUAGGACAGAAGGAGCGGGCUAGUCAAAGACUAGCAAACGUUAAUAACAGGAGUGAUGUUCCAGGUAGGUCGCUGUCCUAUCU [ArgBX 25 #SwitchBubble #StaticStem] | 136 nM | 120 nM | 143 nM | 138 nM | 120 nM |
| UGAUAGGACAGAAGGAGCGGUAGUGAUGUUGCCAAAAGAAUAAGGUGUCAAAAGACACCCUACCAGGUAGGUCGCUGUCCUAUCU | 346 nM | 368 nM | 423 nM | 429 nM | 289 nM |
| UGAUUGCCAGUGAUGUUGGCAUAUACUGAAGGAGCGCGUGAAAACGCAGGUAGGUCGCAGUUCCUUGCCAAUUGAUCGAAAGAUC [KL-XArg-A1] | 130 nM | 138 nM | 137 nM | 150 nM | 127 nM |
| UGAUUUAACUGAAGGAGCGGCAAUAGAGAAGGAAAUAUAGUGAUGUUAUAUAAGAGAGAGAGCCAGGUAGGUCGCAGAGGGAGGA [ExArgB.F] | 181 nM | 128 nM | 137 nM | 171 nM | 151 nM |
| UGCACGGGCUCGGCCGCCACUCCCGCGGGUCGGAAGGUCCGCUACUGAGUGAUGUUCGGUUGGAGGAGGACCGGGAGCCCGUGCA [#2 Exclusion - Tryptophan B Attempt #26 (HarryS)] | 135 nM | 109 nM | 104 nM | 104 nM | 88.5 nM |
| UGCGCUGUGUACUGAAAUGUUCUGCGGGAUACCAGAGUCUUUUUAUUCCCUUGGCAGCUUGAGUGAUGUUUGAUGCCGUUCUUGU [tffeymullin] | 494 nM | 279 nM | 513 nM | 521 nM | 435 nM |
| UGGACCUGACUCGAUAAGAGUCAAUGAGAUACCAGUGACGAAAGUCACCCUUGGCAGCUCACUGCCAGUGAUGUUGGUAGGUCCU [#SwitchBubble 3 #StaticStem] | 1250 nM | 919 nM | 1300 nM | 738 nM | 1070 nM |
